# Residue numbers refer to the chain shown, from its start. Read-outs that look alike come from different tables or passages of the source.
# B1: Antibody 67G8-2 (antibody, V domains shown)
# VH: QSVEESGGRLVTPGTPLTLTCTVSGFSLGNYDGHWVRQTPEKGLEWIGVIATIGDTYYASWAKGRFSISKTSATVELRITSPTTEDTATYFCVRGDSRTSNEIFNLWGQGTLVTVSS
# VL: AVLTQTPSPVSAAVGGTLTINCQSTRSVHNNICLSWYQQKPGQPPKLLIYSASTLASGVPSRFKGSGSGTQFTLAINDVQCGDAATYYCAGCFPSKSDMYGFGGGTEVVVK
# B2: Antibody 135A6-1 (antibody, V domains shown)
# VH: QSVEESGGRLVTPGTPLTLTCTVSGFSLGNYDISWVRQAPGKGLEWIGVIATVGDTYYASWAKGRFTISKTSATVDLKITSPTTEDTATYFCVRGDSPSTNEIFGLWGQGTLVTVSS
# VL: B1 VL with T25S, S27T, H29Y, P41L, S51G, A56T, K64R, A75T, K96T
# B3: Antibody 6D10-1 (antibody, V domains shown)
# VH: QSVEESGGRLVTPGTPLTLTCTVSGFSLSDVTMSWVRQAPGKGLEWIGIIGRRGRIWYANWAKGRFTISKTSPTVDLKIISPTSDDTATYFCARGAVSSDWNMYGMDLWGPGTLVTVSS
# VL: QVLTQTPSSVSAPVGGTVTINCQSSQSVYNNENLAWYQQKLGQPPKLLIYGASTLASGVSSRFEGSGSGTQFALTISGVQCDDAATYYCQGEFDCSSADCFAFGGGTEVVVK
# B4: Antibody 55H8-1 (antibody, V domains shown)
# VH: QSMEESGGRLVTPGTPLTLTCTVSGFSLSDHAMSWVRQAPGKGLEWIGIVGRRGRTYYASWAKGRFTISKTSTTVDLKITSPTIEDTATYFCARGYVSSDWNIYGMDLWGPGTLVTVSS
# VL: B3 VL with S9P, P13A, S24A, E32K, L41P, G51E, E64K, A73T
# B5: Antibody 5B7-1 (antibody, V domains shown)
# VH: QSVEESGGRLVTPGTPLTLTCTVSGFSLSDVTISWVRQAPGKGLKWTGIIGRRGRIRYADWAKGRFTISKTSTTVDLKITSPTTDDTATYFCARAYVSSDWNIYGMDLWGPGTLVTVSS
# VL: B3 VL with P7A, S9P, S24A, E32K, G51E, T54K, A102V
# B6: Antibody 10G3-1 (antibody, V domains shown)
# VH: B4 VH with M3V, V23A, H31D, V50I, R55K, Y57W, S60N, I84T, S119A
# VL: QVLTQTPSPVSAAVGGTVTINCQASQSVYNNKNLAWYQQKSGQPPKLLIYEASKLASGVPSRFKGSGSGTQFTLTISGVQCDDAATYYCQGEFSCSSADCFTFGGGTEVVVK
# B7: Antibody 3E9-1 (antibody, V domains shown)
# VH: QSLEESGGRLVTPGGSLTLTCTVSGIDLSSNAMGWVRQAPGEGLEWIGSIYASGNTYYASWAKGRFAISKTSTTVDLKMTSLTAADTATYFCARLFNIWGPGTLVTVSS
# VL: ADIVLTQTPASVSSVVGGTVTINCQASQSVFDNKNLSWFQQKPGQPPKQLIYGASTLDSGVPSRFKGSGSGTQFTLTISDMQCDDAATYYCGGRDSGNIYDFGGGTEVVVK
# B8: Antibody 21F10-1 (antibody, V domains shown)
# VH: QSVEESGGRLVTPGTPLTLTCTVSGIDLSSNAVGWVRQAPGEGLEWIGSIYSSGNSYYASWAKGRFAISRTSTTVDLKMTRLTAADTATYFCARLFNIWGPGTLVTVS
# VL: B7 VL with T21A, F31Y, P46T, D58A, D80G, M81V, S96D, G97D
# B9: Antibody 4G6-1 (antibody, V domains shown)
# VH: B7 VH with G15T, S16P, E45Q, A52S, K63R, K70R
# VL: B7 VL with L5V, S14A, V15D, F31Y, S37A, L57V, D58A, M81V, S96N, G97D
# B10: Antibody 76H12-1 (antibody, V domains shown)
# VH: B7 VH with S2E, E4K, T20S, V23A, S30G, N31S, E42Q, A52V, K70R, F96L
# VL: B7 VL with A10S, S11P, S14I, V15A, F31Y, S37A, D58A, D80G, G97D
# B11: Antibody 91B4-1 (antibody, V domains shown)
# VH: QSLEESGGRLVSPGGSLTLTCTVSGIDLSRFGVSWVRQAPGKGLEWTGYIHTDGNVYYASWAKGRFTISKTSTTVDLKMTSLTTEDTATYFCARGGYAADLWGQAALVTVSS
# VL: DPMLTQTPSSVSAAVGGTVTISCQSSESVYKNYLAWYQQKLGQPPKLLIGATSTLVSGVPSRFKGSGSRTQFSLTISDLECDDAATYYCVGGYTGKNVFGGGTEVVVK
# B12: monoclonal antibody 65D3-1 (antibody, V domains shown)
# VH: QSLEESGGRLVTPGGSLTLTCTVSGFSLSTHDISWVRQAPGKGLEWIGVIARRGSTYYASWAKGRFTISKTSTTVDLKITSPTIEDTATYFCAREEFDFWGQGTLVTVSS
# VL: AVLTQTASPVSAAVGGTVTISCQSSQSVYNNKELSWFQQKPGQPPKLLISYASTLASGVPSRFKGSGSGTQFTLTISDLECDDAATYYCLGGYASTIDMWAFGGGTEVVVK
# B13: 65D3 wild-type recombinant IgG (VH + VL) (antibody, V domains shown)
# VH: B12 VH
# VL: B12 VL
# B14: Antibody 101G10-2 (antibody, V domains shown)
# VH: QSVEESGGRLVTPGTPLTLTCTVSGFSLSSYDMTWVRQAPGKGLEYIGVISYGGSAYYASWAKGRFTISKTSTTVDLKITSPTTEDTATYFCARGDSDGSSELFNLWGQGTLVTVSS
# VL: AVLTQTPSPVSAPVGGTVSINCQSSKSVYNNNCLSWYQQKPGQPPNLLIYGASTLASGVPSRFKGSGSGTQFTLTINDVQCDDAATYYCAGCFASTNDMYGFGGGSEVVVK
# B15: Antibody 125D9-1 (antibody, V domains shown)
# VH: B14 VH with S2P, I50V, S51A, S55A, A56T
# VL: B14 VL with P13A, S19T, P41Q, N46K, G51Q, L55P, N97S, S106T, E107G
# Legend:
# [1] = target: Peptide 1593 (…) (Mycobacterium tuberculosis); test: indirect ELISA, recombinant antibody on 1 ug/ml coated peptide
# [2] = target: Peptide 1593 (…) (Mycobacterium tuberculosis); test: indirect ELISA, supernatant on 1 ug/ml coated peptide
# [3] = target: Peptide 1593 (…) (Mycobacterium tuberculosis)
# [4] = target: Peptide 2004 (…) (Mycobacterium tuberculosis)
# [5] = target: monoclonal antibody 65D3-1
# [6] = target: Peptide 1593 (…) (Mycobacterium tuberculosis); remark: listed apart in the source
# [7] = target: Peptide 1593 (…) (Mycobacterium tuberculosis); test: SPR (Biacore 8K), antibody immobilised, peptide as analyte
# [8] = target: Peptide 1593 (…) (Mycobacterium tuberculosis); test: SPR (Biacore 8K), antibody amine-coupled to CM5, peptide as analyte, 25 C
# [9] = target: Peptide 1593 (…) (Mycobacterium tuberculosis); test: SPR (Biacore), IgG amine-coupled, peptide as analyte
Binder,"OD450, supernatant 1:90 [2]","OD450, supernatant 1:270 [2]","OD450, supernatant 1:810 [2]","OD450, supernatant 1:2,430 [2]","OD450, supernatant undiluted [2]",Titer [2],rank by relative ELISA signal across the dilution series (1 = highest) [4],further results
B1,3.1 OD450,2.33 OD450,1.31 OD450,0.616 OD450,3.22 OD450,> 2430 dilution 1:x,,"OD450 at 1.95 ng/ml (1:512,000) [1]: 0.876 OD450; OD450 at 3.90 ng/ml (1:256,000) [1]: 1.21 OD450; OD450 at 7.81 ng/ml (1:128,000) [1]: 1.66 OD450; OD450 at 15.62 ng/ml (1:64,000) [1]: 2.14 OD450; OD450 at 31.25 ng/ml (1:32,000) [1]: 2.45 OD450; OD450 at 62.50 ng/ml (1:16,000) [1]: 2.61 OD450; OD450 at 125.00 ng/ml (1:8,000) [1]: 2.76 OD450; OD450 at 250.00 ng/ml (1:4,000) [1]: 2.8 OD450; OD450 at 500.00 ng/ml (1:2,000) [1]: 2.83 OD450; OD450 at 1,000.00 ng/ml (1:1,000) [1]: 2.85 OD450; Titer [1]: > 512000 dilution 1:x; Kd [3]: 0.101 nM; koff [3]: 3.02e-05 s⁻¹; kon [3]: 299000 M⁻¹ s⁻¹"
B2,3.46 OD450,3.22 OD450,2.68 OD450,1.69 OD450,3.27 OD450,> 2430 dilution 1:x,,
B3,,,,,,,2,
B4,,,,,,,4,
B5,,,,,,,3,
B6,,,,,,,5,
B7,,,,,,,7,
B8,,,,,,,11,
B9,,,,,,,10,
B10,,,,,,,8,
TDAATLAQEAGNFERC (modifications not checked) [Peptide 1593 (…)],,,,,,,,IC50 (read off the curve) [5]: 2 nM
B11,3.04 OD450,2.27 OD450,1.3 OD450,0.618 OD450,3.12 OD450,> 2430 dilution 1:x,,
B12,,,,,,,,koff [6]: 0.000238 s⁻¹; kon [6]: 138000 M⁻¹ s⁻¹; Kd [7]: 1.72 nM; Kd [8]: 1.72 nM
B13,,,,,,,,Kd [9]: 0.755 nM; koff [9]: 0.00017 s⁻¹; kon [9]: 225000 M⁻¹ s⁻¹
B14,3.22 OD450,3.21 OD450,3.1 OD450,2.41 OD450,3.23 OD450,> 2430 dilution 1:x,,
B15,3.37 OD450,3.31 OD450,3.27 OD450,2.85 OD450,3.2 OD450,> 2430 dilution 1:x,,

# — US12649778
